For 1 substance, diffusion coefficient of EPYC1-GFP with Rubisco (60 μm^2/s without Rubisco) results are on record in doi:10.1101/2025.10.09.681382.

The experiment has as its target Rubisco (Chlamydomonas reinhardtii (endogenous, purified from cells)) (UniProt P00877). The experiment in a line: fluorescence correlation spectroscopy; 20 nM EPYC1-GFP mixed with 2 μM Rubisco (no phase separation at this concentration); diffusion coefficient of EPYC1-GFP from a single-species fit.

“EPYC1-GFP, unphosphorylated (mock-treated) (natural protein)” returned a diffusion coefficient of EPYC1-GFP with Rubisco (60 μm^2/s without Rubisco) of 41 μm^2/s.
